Assay results from doi:10.1101/797027 (bioRxiv, 2019).
Values belong to the binder of their own block, whether it stands above or below them.

Tests used:
[1] = molecular target: ubiquitin (UniProt P0CG48 1-76); experiment: NMR titration
[2] = molecular target: T1, hRpn10^305–377 (RAZUL, Rpn10 AZUL binding domain) (human, UniProt P55036 305-377); experiment: ITC
T1 sequence (looked up): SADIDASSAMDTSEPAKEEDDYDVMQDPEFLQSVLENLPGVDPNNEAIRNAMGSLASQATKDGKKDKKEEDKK

[3] = molecular target: T2, GST-hRpn10^305–377 (human, UniProt P55036 305-377); experiment: SPR
T2 sequence (looked up): T1 sequence (looked up)

binding result [1]: binds
B1: His-hRpn10^196–377 (domain or fragment)
chain: MLGLGASDFEFGVDPSADPELALALRVSMEEQRQRQEEEARRAAAASAAEAGIATTGTEDSDDALLKMTISQQEFGRTGLPDLSSMTEEEQIAYAMQMSLQGAEFGQAESADIDASSAMDTSEPAKEEDDYDVMQDPEFLQSVLENLPGVDPNNEAIRNAMGSLASQATKDGKKDKKEEDKK

Kd [2]: 11.6 nM
Kd [3]: 8.1 nM
B2: E6AP AZUL domain, E6AP[24–87] (domain or fragment, human, UniProt Q05086 24-87, looked up)
chain: MKRAAAKHLIERYYHQLTEGCGNEACTNEFCASCPTFLRMDNNAAAIKALELYKINAKLCDPHP
